Test results as given in patent publication US20180016346A1 (Kyowa Kirin, published 2018).
One block for each binder: values may come before it.

How the values were obtained:
[1] = molecular target: T1, human prostate specific membrane antigen (hPSMA), membrane form on cells (human, UniProt Q04609 1-750); test: flow cytometry on hPSMA/L929 cells (FIG. 2)
T1 construct: endogenous on LNCaP clone FGC cells; also called membrane hPSMA
Description: (§1) The cells were suspended in a staining buffer [PBS containing 0.1% NaN₃ and 1% FBS] at a concentration of 1×10⁶ cells/mL, and dispensed in a round-bottom 96-well plate (manufactured by Becton Dickinson) by 100 μL/well. After the centrifugation (2000 rpm, 4° C., 2 minutes), each antibody obtained in Example 7 was added to the pellet obtained by removing the supernatant, and suspended, and then left stand at ice temperature for 30 minutes.
(§2) After the further centrifugation (2000 rpm, 4° C., 2 minutes), the pellet obtained by removing the supernatant was washed twice with 200 μL/well of the staining buffer. Thereafter, 1 μg/mL of RPE fluorescently labeled mouse anti-human antibody (hinge region) clone 4E3 antibody (manufactured by Southern Bioblot) was added thereto by 50 μL/well and incubated at ice temperature for 30 minutes. After washing twice with the staining buffer, the cells were suspended in 200 μL/well of the staining buffer, and the fluorescence intensity of each cell was measured with the flow cytometer FACSCANTO II (manufactured by Becton Dickinson). The obtained results are illustrated in FIG. 2 and FIG. 3.
hPSMA/L929 cells were stained with anti-TRAILR2 monoclonal antibody E11 antibody, anti-hPSMA monoclonal antibody PI134 antibody, or hTRAILR2-hPSMA bispecific antibody E11-CH1-PI101VH antibody, E11-CH1-PN7VH antibody or E11-CH1-PN170VH antibody. The obtained results are illustrated in FIG. 2.

[2] = molecular target: T2, human TRAILR2 (tumor necrosis factor-related apoptosis inducing ligand receptor 2) (human, UniProt O14763 56-440); test: flow cytometry on hTRAILR2/L929 cells (FIG. 3)
T2 construct: whole, on cells; The hTRAILR2/L929 cells are only cited from WO 2002/094880, and the construct expressed on them is not described here; On PC3 and LNCaP clone FGC cells the receptor is endogenous; also called hTRAILR2; death receptor 5
Description: as §1
as §2, with “3. […]” for “3.”

[3] = molecular target: T1, human prostate specific membrane …; test: flow cytometry

T1 sequence (Q04609 whole entry): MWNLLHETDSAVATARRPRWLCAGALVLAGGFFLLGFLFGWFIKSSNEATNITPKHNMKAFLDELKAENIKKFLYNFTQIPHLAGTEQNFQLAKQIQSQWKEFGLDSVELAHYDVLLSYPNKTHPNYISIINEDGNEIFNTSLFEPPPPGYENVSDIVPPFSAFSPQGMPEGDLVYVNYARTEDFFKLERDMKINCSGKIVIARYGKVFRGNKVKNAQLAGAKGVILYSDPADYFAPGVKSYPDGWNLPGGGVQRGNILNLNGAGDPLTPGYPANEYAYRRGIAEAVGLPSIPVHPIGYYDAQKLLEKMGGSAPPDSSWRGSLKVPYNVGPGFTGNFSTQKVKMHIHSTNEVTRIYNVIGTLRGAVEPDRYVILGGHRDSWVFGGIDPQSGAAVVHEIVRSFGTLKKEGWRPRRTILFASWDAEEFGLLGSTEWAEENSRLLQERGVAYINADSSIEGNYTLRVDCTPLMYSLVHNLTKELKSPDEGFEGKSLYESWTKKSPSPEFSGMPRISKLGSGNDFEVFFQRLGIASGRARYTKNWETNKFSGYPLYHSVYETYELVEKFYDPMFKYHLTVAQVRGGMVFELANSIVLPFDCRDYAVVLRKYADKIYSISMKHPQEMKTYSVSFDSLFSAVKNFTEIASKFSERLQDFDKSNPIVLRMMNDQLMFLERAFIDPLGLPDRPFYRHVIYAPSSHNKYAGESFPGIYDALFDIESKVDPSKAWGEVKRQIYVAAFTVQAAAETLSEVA

- binding result [1]: binds
B1: anti-hPSMA monoclonal antibody PI134 antibody (antibody, human IgG1, V domains shown)
VH: QVQLVQSGAEVKKPGASVKVSCKASGYTFTTYDINWVRQATGQGLEWMGWMNPNNGYTGYAQKFQGRVTMTRNTSISTAYMELSSLRSEDTAVYYCARTNWVYWYFDLWGRGTLVTVSS
VL: EIVLTQSPATLSLSPGERATLSCRASQSVSSFLAWYQQKPGQAPRLLIYDASNRATGIPARFSGSGSGTDFTLTISSLEPEDFAVYYCQQRSNWPLTFGPGTKVDIKR
notes: Its VL is the same as that of the E11 antibody
- binding result [2]: no binding

- binding result [1]: binds
B2: hTRAILR2-hPSMA bispecific antibody E11-CH1-PN170VH antibody (bispecific antibody, IgG4)
heavy: not shown
VL: B1 VL
notes: domain: constant region; The heavy chain is E11 VH, an IgG4 CH1 linker and PN170 VH, followed by the constant region of the vector; All four light chains carry E11 VL

- binding result [3]: binds
B3: hTRAILR2-hPSMA bispecific antibody fragment E11-CH1-PN7VH F(ab′)2 (bispecific antibody)
heavy: QLQLQESGPGLVKPSETLSLTCTVSGGSIISKSSYWGWIRQPPGKGLEWIGSIYYSGSTFYNPSLKSRVTISVDTSKNQFSLKLSSVTAADTAVYYCARLTVAEFDYWGQGTLVTVSSASTKGPSVFPLAPCSRSTSESTAALGCLVKDYFPEPVTVSWNSGALTSGVHTFPAVLQSSGLYSLSSVVTVPSSSLGTKTYTCNVDHKPSNTKVDKRVEVQLVQSGAEVKKPGASVKVSCKASGYTFTTYDINWVRQATGQGLEWMGWMNPNSGYTGYAQKFQGRVTMTRDTSISTAYMELSSLRSEDTAVYYCARTNWESWYFDLWGRGTLVTVSSASTKGPSVFPLAPCSRSTSESTAALGCLVKDYFPEPVTVSWNSGALTSGVHTFPAVLQSSGLYSLSSVVTVPSSSLGTKTYTCNVDHKPSNTKVDKRVESKYGPPCPPCPDYKDDDDKHHHHHH
VL: B1 VL
notes: CH2 and CH3 are deleted; The heavy chain carries a C-terminal FLAG-tag and His-tag and dimerises through cysteine in the hinge region; All light chains carry E11 VL

- binding result [3]: binds
B4: hTRAILR2-hPSMA bispecific antibody fragment E11-CH1-PN7VH Fab (bispecific antibody)
heavy: QLQLQESGPGLVKPSETLSLTCTVSGGSIISKSSYWGWIRQPPGKGLEWIGSIYYSGSTFYNPSLKSRVTISVDTSKNQFSLKLSSVTAADTAVYYCARLTVAEFDYWGQGTLVTVSSASTKGPSVFPLAPCSRSTSESTAALGCLVKDYFPEPVTVSWNSGALTSGVHTFPAVLQSSGLYSLSSVVTVPSSSLGTKTYTCNVDHKPSNTKVDKRVEVQLVQSGAEVKKPGASVKVSCKASGYTFTTYDINWVRQATGQGLEWMGWMNPNSGYTGYAQKFQGRVTMTRDTSISTAYMELSSLRSEDTAVYYCARTNWESWYFDLWGRGTLVTVSSASTKGPSVFPLAPCSRSTSESTAALGCLVKDYFPEPVTVSWNSGALTSGVHTFPAVLQSSGLYSLSSVVTVPSSSLGTKTYTCNVDHKPSNTKVDKRVDYKDDDDKHHHHHH
VL: B1 VL
notes: The hinge region is deleted from E11-CH1-PN7VH F(ab′)2; The light chains carry E11 VL, as in the F(ab′)2

- binding result [3]: binds
B5: hTRAILR2-hPSMA heterobispecific antibody E11_PN7 Hetero antibody (bispecific antibody, human IgG1)
heavy 1: not shown
heavy 2: not shown
VL: B1 VL
notes: also called hE11_PN7 Hetero antibody

- binding result [1]: binds
B6: hTRAILR2-hPSMA bispecific antibody E11-CH1-PI101VH antibody (bispecific antibody, IgG4)
heavy: not shown
VL: B1 VL
notes: domain: constant region; The heavy chain is E11 VH, an IgG4 CH1 linker and PI101 VH, followed by the constant region of the vector; All four light chains carry E11 VL
